We go through one molecule from patent publication US20050123549A1 (IMMUNOGEN, published 2005).

Experiment [1] deals with T1, Muc1 mucin carrying the CA6 sialoglycotope (human, UniProt P15941 24-1255, sialylated O-linked carbohydrate carrying the CA6 epitope; positions not stated).
T1 construct: whole, on cells; Target of DS6 on CA6-positive human cell lines (flow cytometry) and in their lysates (dot blots, immunoprecipitation); also called CA6 antigen; DS6 antigen
Description: flow cytometry on HeLa cells, apparent Kd. As for the experimental part:
(§1) Cells ([…]) were incubated, on ice for 3-4 h, with serially diluted concentrations of the DS6 antibody prepared in FACS buffer (2% goat serum, RPMI) into 96-well plates. The cells were spun down in a table top centrifuge at 1500 rpm for 5 min at 4° C. After removing the media, the wells were then refilled with 150 μl of FACS buffer. The wash step was then repeated. FITC-labeled goat anti-mouse IgG (Jackson Immunoresearch) was diluted 1:100 to FACS buffer and incubated with the cells for 1 h on ice. The plate was covered in foil to prevent photobleaching of the signal. After two washes, the cells were fixed with 1% formaldehyde and analyzed on a flow cytometer.

Experiment [2] has as its target T1, Muc1 mucin carrying the CA6 …. Description: flow cytometry on BT-20 cells, apparent Kd. The protocol:
(§2) Human cell lines were obtained from the American Type Culture Collection (ATCC) with the exception of OVCAR5 (Kearse et al., Int. J. Cancer 88(6):866-872 (2000)), OVCAR8 and IGROV1 cells (M. Seiden, Massachusetts General Hospital). All cells were grown in RPMI 1640 supplemented with 4 mM L-glutamine, 50 U/ml penicillin, 50 μg/ml streptomycin (Cambrex Bio Science, Rockland, Me.) and 10% v/v fetal bovine serum (Atlas Biologicals, Fort Collins, Colo.), referred hereafter as culture media. Cells were maintained in a 37° C., 5% CO₂ humidified incubator.
as §1

The target is the same in experiment [3]. Description: flow cytometry on BT-20 cells, apparent Kd. The source holds these as a separate data set.
For experiment [4] the target is unchanged. Description: flow cytometry on SW1990 cells, apparent Kd. The protocol:
as §2, §1

Experiment [5] shares this target. Description: flow cytometry on HPAF-II cells, apparent Kd.
Experiment [6] has the same target. Description: flow cytometry on T-47D cells, FITC anti-mouse IgG. The protocol: The fluorescence of cell lines incubated with the DS6 primary antibody and FITC conjugated anti-mouse IgG(H+L) secondary antibodies was measured by flow cytometry.
as §1

The target is the same in experiment [7]. Description: flow cytometry on MDA-MB-157 cells, apparent Kd. The protocol:
as §2, §1

For experiment [8] the target is unchanged. Description: flow cytometry on MDA-MB-468 cells, apparent Kd. The protocol: as §2, §1
For experiment [9] the target is unchanged. Description: competition flow cytometry on WISH cells; competitor 2 nM biotin-muDS6, streptavidin-DTAF. As for the experimental part: To confirm that the huDS6 versions retains the affinity of muDS6, competitive binding experiments were conducted. […] In some cases, the experimentally measured apparent Kd can vary simply because of the secondary reagent used to indirectly detect binding.

B1: murine DS6 anti-CA6 monoclonal antibody (antibody, IgG1, V domains shown)
VH: QAYLQQSGAELVRSGASVKMSCKASGYTFTSYNMHWVKQTPGQGLEWIGYIYPGNGATNYNQKFKGKATLTADPSSSTAYMQISSLTSEDSAVYFCARGDSVPFAYWGQGTLVTVSA
VL: QIVLTQSPAIMSASPGEKVTITCSAHSSVSFMHWFQQKPGTSPKLWIYSTSSLASGVPARFGGSGSGTSYSLTISRMEAEDAATYYCQQRSSFPLTFGAGTKLELKR
notes: Whole murine monoclonal IgG from the DS6 hybridoma (ATCC PTA-4449); the 3' heavy chain cloning primer was BamIgG1 and the light chain primer was kappa; also called DS6 antibody; muDS6
For the molecule B1, the Kd stood at 0.694 nM in [1]; 0.914 nM in experiment [2]; 0.914 nM in [3]; 0.368 nM in experiment [4]; 2.81 nM in experiment [5]; 2.59 nM in experiment [6]. Besides, the Kd in experiment [7] is 0.197 nM; in experiment [8], 0.813 nM. In experiment [9], the half-maximal effective concentration (EC50) was 12.2 nM.
